Like-named read-outs stand apart in the source and are kept apart here.
Assays:
Experiment in all cases: ATP/PPi exchange rate against MLP concentration
[1] = molecular target: EntF, enterobactin nonribosomal peptide synthetase (E. coli) (UniProt P11454)
[2] = molecular target: T1, EntF, enterobactin nonribosomal peptide synthetase (E. coli, UniProt P11454 1-1293)
[3] = molecular target: T1, EntF, enterobactin nonribosomal peptide …; remark: listed apart in the source

T1 sequence (P11454 whole entry): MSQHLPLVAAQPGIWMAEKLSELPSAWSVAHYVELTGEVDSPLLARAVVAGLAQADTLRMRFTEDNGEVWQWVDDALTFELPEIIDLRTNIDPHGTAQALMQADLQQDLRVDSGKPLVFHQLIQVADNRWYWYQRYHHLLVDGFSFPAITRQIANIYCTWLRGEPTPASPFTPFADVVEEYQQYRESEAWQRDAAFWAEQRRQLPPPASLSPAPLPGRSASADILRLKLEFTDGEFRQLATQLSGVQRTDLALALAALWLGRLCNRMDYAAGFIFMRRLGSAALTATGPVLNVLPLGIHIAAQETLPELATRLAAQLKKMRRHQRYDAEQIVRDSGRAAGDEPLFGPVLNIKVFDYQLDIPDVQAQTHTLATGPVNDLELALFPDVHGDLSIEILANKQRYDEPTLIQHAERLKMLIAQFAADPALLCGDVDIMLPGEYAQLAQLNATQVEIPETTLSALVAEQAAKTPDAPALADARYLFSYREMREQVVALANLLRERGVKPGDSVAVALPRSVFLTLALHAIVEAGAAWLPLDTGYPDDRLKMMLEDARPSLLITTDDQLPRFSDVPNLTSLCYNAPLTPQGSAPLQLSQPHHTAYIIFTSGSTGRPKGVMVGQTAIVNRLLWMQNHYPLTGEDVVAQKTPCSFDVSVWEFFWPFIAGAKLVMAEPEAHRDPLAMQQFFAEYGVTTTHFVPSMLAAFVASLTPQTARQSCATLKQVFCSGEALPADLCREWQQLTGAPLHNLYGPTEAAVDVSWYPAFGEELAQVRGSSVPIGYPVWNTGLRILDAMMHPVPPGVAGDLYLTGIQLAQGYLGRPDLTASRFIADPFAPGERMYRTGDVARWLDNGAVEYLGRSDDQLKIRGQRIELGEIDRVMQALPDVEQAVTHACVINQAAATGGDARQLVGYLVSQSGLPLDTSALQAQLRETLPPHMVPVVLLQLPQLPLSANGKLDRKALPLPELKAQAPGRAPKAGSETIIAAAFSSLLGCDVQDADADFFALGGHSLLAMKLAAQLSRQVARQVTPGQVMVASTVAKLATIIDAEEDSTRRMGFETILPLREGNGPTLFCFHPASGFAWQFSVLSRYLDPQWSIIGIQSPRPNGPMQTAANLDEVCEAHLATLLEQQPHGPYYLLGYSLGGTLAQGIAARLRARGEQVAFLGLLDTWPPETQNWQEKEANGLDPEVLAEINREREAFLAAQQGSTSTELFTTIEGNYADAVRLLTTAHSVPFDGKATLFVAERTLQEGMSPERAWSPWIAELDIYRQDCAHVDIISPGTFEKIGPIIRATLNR
EntF, enterobactin nonribosomal peptide synthetase (E. coli), sequence (P11454 whole entry): as above

Molecule: VioN, MbtH-like protein of viomycin biosynthesis (purified, tag cleaved) (natural protein)
- Kd [1]: 200 nM

B1: CmnN, MbtH-like protein of capreomycin biosynthesis (purified, tag cleaved) (natural protein, Saccharothrix mutabilis subsp. capreolus, UniProt A6YEI5 1-62, looked up)
chain: MDTYLVVVNHEEQYSVWPADRPLPAGWRAEGTSGDKEQCLAHIETVWTDMRPLSVRRRAEAV
- Kd [2]: 150 ± 7 nM

B2: MbtH, MbtH-like protein of mycobactin biosynthesis (purified, tag cleaved) (natural protein)
chain: MSTNPFDDDNGAFFVLVNDEDQHSLWPVFADIPAGWRVVHGEASRAACLDYVEKNWTDLRPKSLRDAMVED
- Kd [3]: 54.6 ± 8 nM

B3: MXAN_3118, orphan MbtH-like protein (purified, tag cleaved) (natural protein, Myxococcus xanthus DK1622, UniProt Q1D7Q2 1-71, looked up)
chain: MTDEREDTTVYKVVVNHEEQYSIWPADRENALGWKDAGKQGLKAECLEYIKEVWTDMRPLSLRKKMEELKS
- Kd [2]: 166 ± 29 nM

B4: BSU31959, MbtH-like protein of corynebactin biosynthesis (purified, tag cleaved) (natural protein, Bacillus subtilis strain 168, UniProt C0H3Q6 1-69, looked up)
chain: MANPFENADGTYLVLVNEEGQYSLWPGFIDVPSGWTVVHEQKGREACLDYIQSHWSDMRPNSLKTVENV
- Kd [2]: 310 ± 69 nM

From PMC5902190 (Biochemistry, 2017)
